Measured values from PMC9329571, “Regulation of TIA-1 Condensates: Zn2+ and RGG Motifs Promote Nucleic Acid Driven LLPS and Inhibit Irreversible Aggregation”.

B1: TIA-1 RRM2,3 (amino acids 93-274), wild type [not stated] / itself (parent)
chain: NHFHVFVGDLSPEITTEDIKAAFAPFGRISDARVVKDMATGKSKGYGFVSFFNKWDAENAIQQMGGQWLGGRQIRTNWATRKPPAPKSTYESNTKQLSYDEVVNQSSPSNCTVYCGGVTSGLTEQLMRQTFSPFGQIMEIRVFPDKGYSFVRFNSHESAAHAIVSVNGTTIEGHVVKCYWGK

Variants of: B1
Assay: turbidity (A385 nm)
Conditions: with itself; TIA-1:ZnCl2 ratio 1:8; 20 µM protein; 20 mM HEPES, 50 mM NaCl, 1 mM TCEP, pH 6.9, 25°C, within 30 min incubation under shaking; read off a plot

| response [A.U.] | Variant |
| --- | --- |
| 0.072 | NHFAVFVGDLSPEITTEDIKAAFAPFGRISDARVVKDMATGKSKGYGFVSFFNKWDAENAIQQMGGQWLGGRQIRTNWATRKPPAPKSTYESNTKQLSYDEVVNQSSPSNCTVYCGGVTSGLTEQLMRQTFSPFGQIMEIRVFPDKGYSFVRFNSHESAAHAIVSVNGTTIEGHVVKCYWGK |
| 0.056 | NAFAVFVGDLSPEITTEDIKAAFAPFGRISDARVVKDMATGKSKGYGFVSFFNKWDAENAIQQMGGQWLGGRQIRTNWATRKPPAPKSTYESNTKQLSYDEVVNQSSPSNCTVYCGGVTSGLTEQLMRQTFSPFGQIMEIRVFPDKGYSFVRFNSHESAAHAIVSVNGTTIEGHVVKCYWGK |
| 0.058 | NAFHVFVGDLSPEITTEDIKAAFAPFGRISDARVVKDMATGKSKGYGFVSFFNKWDAENAIQQMGGQWLGGRQIRTNWATRKPPAPKSTYESNTKQLSYDEVVNQSSPSNCTVYCGGVTSGLTEQLMRQTFSPFGQIMEIRVFPDKGYSFVRFNSHESAAHAIVSVNGTTIEGHVVKCYWGK |
